Target: T1, GST-BAK (human)
T1 chain: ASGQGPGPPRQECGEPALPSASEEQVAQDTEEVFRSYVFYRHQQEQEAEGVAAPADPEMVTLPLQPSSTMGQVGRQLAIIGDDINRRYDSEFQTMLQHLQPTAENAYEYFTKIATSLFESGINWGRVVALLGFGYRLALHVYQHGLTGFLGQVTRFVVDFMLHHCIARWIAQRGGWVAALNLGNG
Assay: fluorescence polarisation; competitive: displacement of 10 nM BID BH3 SAHB-F from 1 µM GST-BAK by peptides at 500-0.2 µM; 50 mM Tris-HCl pH 7.5, 50 mM KCl, 0.1 mg/mL BSA, 2 mM DTT, 0.005% Tween-20; 60 min at RT
Details: both partners purified

IC50: 27.4 ± 16.4 µM
Binder: Ac-EDWIRNIARHLAQVGDSMDRSI-NH2 [W(0') BID BH3 peptide]
